Assay results as given in publication PMC5042879 (The Biochemical journal, 2016).

T1: (His)6-tagged erythrocyte cytoplasmic domain of band 3 (cdb3), wild type (UniProt P02730 1-403)
T1 sequence (looked up): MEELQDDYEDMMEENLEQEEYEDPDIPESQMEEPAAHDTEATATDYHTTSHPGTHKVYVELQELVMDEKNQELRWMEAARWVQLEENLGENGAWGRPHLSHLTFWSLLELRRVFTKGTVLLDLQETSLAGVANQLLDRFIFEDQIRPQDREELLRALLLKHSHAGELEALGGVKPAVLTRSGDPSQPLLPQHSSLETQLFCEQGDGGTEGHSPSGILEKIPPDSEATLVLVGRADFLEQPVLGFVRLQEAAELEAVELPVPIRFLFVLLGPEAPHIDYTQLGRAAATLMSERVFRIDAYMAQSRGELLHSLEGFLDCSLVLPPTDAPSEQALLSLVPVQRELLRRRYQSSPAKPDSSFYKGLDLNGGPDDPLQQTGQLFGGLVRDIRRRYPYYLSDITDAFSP

B1: GST-β-adducin tail (amino acids 335–726) (domain or fragment, UniProt P35612 335-726, looked up)
chain: EKHRPHEVGSVQWAGSTFGPMQKSRLGEHEFEALMRMLDNLGYRTGYTYRHPFVQEKTKHKSEVEIPATVTAFVFEEDGAPVPALRQHAQKQQKEKTRWLNTPNTYLRVNVADEVQRSMGSPRPKTTWMKADEVEKSSSGMPIRIENPNQFVPLYTDPQEVLEMRNKIREQNRQDVKSAGPQSQLLASVIAEKSRSPSTESQLMSKGDEDTKDDSEETVPNPFSQLTDQELEEYKKEVERKKLELDGEKETAPEEPGSPAKSAPASPVQSPAKEAETKSPLVSPSKSLEEGTKKTETSKAATTEPETTQPEGVVVNGREEEQTAEEILSKGLSQMTTSADTDVDTSKDKTESVTSGPMSPEGSPSKSPSKKKKKFRTPSFLKKSKKKEKVES

Experiments:
[1] = molecular target: T1, (His)6-tagged erythrocyte cytoplasmic …; test: pull-down
[2] = molecular target: B1; test: pull-down

| Kd [1] [nM] | Kd [2] [nM] | Binder |
| --- | --- | --- |
| 260 |  | B1 |
|  | 280 | (His)6-tagged kidney cytoplasmic domain of band 3 (kidney cdb3) (domain or fragment, UniProt P02730-2 1-338, looked up) MDEKNQELRWMEAARWVQLEENLGENGAWGRPHLSHLTFWSLLELRRVFTKGTVLLDLQETSLAGVANQLLDRFIFEDQIRPQDREELLRALLLKHSHAGELEALGGVKPAVLTRSGDPSQPLLPQHSSLETQLFCEQGDGGTEGHSPSGILEKIPPDSEATLVLVGRADFLEQPVLGFVRLQEAAELEAVELPVPIRFLFVLLGPEAPHIDYTQLGRAAATLMSERVFRIDAYMAQSRGELLHSLEGFLDCSLVLPPTDAPSEQALLSLVPVQRELLRRRYQSSPAKPDSSFYKGLDLNGGPDDPLQQTGQLFGGLVRDIRRRYPYYLSDITDAFSP |
